Experimental data as given in patent US20180155451A1 (published 2018).
Residue numbers refer to the chain shown, from its start.

T1: FcγRIIa R type extracellular domain with C-terminal His tag (human, UniProt P12318 34-217)
T1 construct: extracellular domain; also called FcgRIIa R; FcgRIIaR; not shown: His tag at the C terminus
T1 sequence (looked up): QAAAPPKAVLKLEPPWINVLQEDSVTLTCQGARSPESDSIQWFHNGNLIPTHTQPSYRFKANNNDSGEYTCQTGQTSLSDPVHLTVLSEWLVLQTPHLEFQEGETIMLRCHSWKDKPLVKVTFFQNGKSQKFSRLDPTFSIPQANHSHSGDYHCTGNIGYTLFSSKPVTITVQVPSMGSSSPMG

T2: FcγRIIa H type extracellular domain with C-terminal His tag (human, UniProt P12318 34-217)
T2 construct: extracellular domain; also called FcgRIIa H; FcgRIIaH; not shown: His tag at the C terminus
T2 sequence (looked up): T1 sequence (looked up) with R134H

T3: FcγRIIb extracellular domain with C-terminal His tag (human, UniProt P31994 43-217)
T3 construct: extracellular domain; also called FcgRIIb; 2b; not shown: His tag at the C terminus
T3 sequence (looked up): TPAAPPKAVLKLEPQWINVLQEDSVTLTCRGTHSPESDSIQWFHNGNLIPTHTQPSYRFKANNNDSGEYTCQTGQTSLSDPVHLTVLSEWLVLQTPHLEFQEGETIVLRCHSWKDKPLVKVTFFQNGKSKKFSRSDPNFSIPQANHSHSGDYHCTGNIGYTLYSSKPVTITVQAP

B1: GpH7-A5/GpH7-HA5/GpL16-k0 (antibody, human IgG1, kappa)
heavy 1: not shown
heavy 2: QVQLVQSGAEVKKPGASVTVSCKASGYTFTDYEMHWIRQPPGEGLEWIGAIDPKTGDTAYSESFQDRVTLTADKSTSTAYMELSSLTSEDTAVYYCTRFYSYTYWGQGTLVTVSSASTKGPSVFPLAPSSKSTSGGTAALGCLVKDYFPEPVTVSWNSGALTSGVHTFPAVLQSSGLYSLSSVVTVPSSSLGTQTYICNVNHKPSNTKVDKKVEPKSCDKTHTCPPCPAPEYLGGPSVFLFPPKPKDTLMISRTPEVTCVVVDVSHEDPEVKFNWYVDGVEVHNAKTKPREEQYNSTYRVVSVLTVLHQDWLNGKEYKCKVSNKALRAPIEKTISKAKGQPREPQVYTLPPSRDELTKNQVSLTCLVKGFYPSDIAVEWESNGQPENNYKTTPPVLDSDGSFFLYSKLTVDKSRWQQGNVFSCSVMHEALHNHYTQESLSLSP
light: DIVMTQSPLSLPVTPGEPASISCQASESLVHSNRNTYLHWYLQKPGQSPQLLIYKVSNRFSGVPDRFSGSGSGTDFTLKISRVEAEDVGVYYCSQNTHVPPTFGQGTKVEIERTVAAPSVFIFPPSDEQLKSGTASVVCLLNNFYPREAKVQWKVDNALQSGNSQESVTEQDSKDSTYSLSSTLTLSKADYEKHKVYACEVTHQGLSSPVTKSFNRGEC
notes: Heterodimerized anti-glypican-3 IgG1 variant
B2: GpH7-A5/GpH7-HA6/GpL16-k0 (antibody, human IgG1, kappa)
heavy 1: not shown
heavy 2: B1 heavy 2 with Y232L, G234W
light: B1 light
notes: as for B1
B3: GpH7-A5/GpH7-HA7/GpL16-k0 (antibody, human IgG1, kappa)
heavy 1: not shown
heavy 2: B1 heavy 2 with Y232L, S237D
light: B1 light
notes: as for B1
B4: GpH7-A5/GpH7-HA11/GpL16-k0 (antibody, human IgG1, kappa)
heavy 1: not shown
heavy 2: B1 heavy 2 with Y232L, S296A
light: B1 light
notes: as for B1
B5: GpH7-A5/GpH7-HA15/GpL16-k0 (antibody, human IgG1, kappa)
heavy 1: not shown
heavy 2: B1 heavy 2 with Y232L, A328L
light: B1 light
notes: as for B1
B6: GpH7-A5/GpH7-HA18/GpL16-k0 (antibody, human IgG1, kappa)
heavy 1: not shown
heavy 2: B1 heavy 2 with Y232L, I330E
light: B1 light
notes: as for B1
B7: H240-FA009/H240-FB021/L73-k0 (antibody, human IgG1, kappa)
heavy 1: QDQLVQSGAEVKKPGASVKVSCKASGFNIKDTYIQWVRQAPGQGLEWMGRIDPLRKQTKYREKFEGRVTITADTSTNTAYMELSSLRSEDTAVYYCVRSGREFDYWGQGTLVTVSSASTKGPSVFPLAPSSKSTSGGTAALGCLVKDYFPEPVTVSWNSGALTSGVHTFPAVLQSSGLYSLSSVVTVPSSSLGTKTYICNVNHKPSNTKVDKKVEPKSCDKTHTCPPCPAPEYYWGPSVFLFPPKPKDTLMISRTPEVTCVVVDVSDEEPEVKFNWYVDGVEVHNAKTKPREEQYNATYRVVSVLTVLHQDWLNGKEYKCKVSNKALPAPIEKTISKAKGQPREPQVYTLPPSRKEMTKNQVSLTCLVKGFYPSDIAVEWESNGQPENNYKTTPPVLDSDGSFFLYSKLTVDKSRWQQGNVFSCSVMHEALHNRYTQKSLSLSP
heavy 2: QDQLVQSGAEVKKPGASVKVSCKASGFNIKDTYIQWVRQAPGQGLEWMGRIDPLRKQTKYREKFEGRVTITADTSTNTAYMELSSLRSEDTAVYYCVRSGREFDYWGQGTLVTVSSASTKGPSVFPLAPSSKSTSGGTAALGCLVKDYFPEPVTVSWNSGALTSGVHTFPAVLQSSGLYSLSSVVTVPSSSLGTQTYICNVNHKPSNTKVDKKVEPKSCDKTHTCPPCPAPELLGGPSVFLFPPKPKDTLMISRTPEVTCVVVDVSHEEPEVQFNWYVDGVEVHNAETKPREEQYNSTYRVVSVLTVLHQDWLNGKEYKCKVSNDALPMPIEETISKAKGQPREPQVYTLPPSREEMTKNQVSLTCLVKGFYPSDIAVEWESNGQPENNYKTTPPVLDSDGSFFLYSKLTVDKSRWQQGNVFSCSVMHEALHNHYTQESLSLSP
light: DIQMTQSPSSLSASVGDRVTITCRASQDIHKYIAWYQQKPGQAPRLLIQYTSTLQPGVPSRFSGSGSGTDYTFTISSLQPEDIATYYCLQYEQLRTFGGGTKVEIKRTVAAPSVFIFPPSDEQLKSGTASVVCLLNNFYPREAKVQWKVDNALQSGNSQESVTEQDSKDSTYSLSSTLTLSKADYEKHKVYACEVTHQGLSSPVTKSFNRGEC
notes: Heterodimerized anti-EREG IgG1 antibody; A chain altered from H240-AK072, B chain altered from H240-BH076
B8: H240-FA009/H240-FB033/L73-k0 (antibody, human IgG1, kappa)
heavy 1: B7 heavy 1
heavy 2: B7 heavy 2 with G137E, E287K
light: B7 light
notes: as for B7
B9: H240-FA009/H240-FB047/L73-k0 (antibody, human IgG1, kappa)
heavy 1: B7 heavy 1
heavy 2: B7 heavy 2 with E287K, N383E
light: B7 light
notes: as for B7
B10: H240-FA009/H240-FB052/L73-k0 (antibody, human IgG1, kappa)
heavy 1: B7 heavy 1
heavy 2: B7 heavy 2 with K213T, E287K
light: B7 light
notes: as for B7
B11: H240-FA012/H240-FB001/L73-k0 (antibody, human IgG1, kappa)
heavy 1: B7 heavy 1 with E271K
heavy 2: B7 heavy 2 with E287K
light: B7 light
notes: as for B7
B12: H240-FA024/H240-FB001/L73-k0 (antibody, human IgG1, kappa)
heavy 1: B7 heavy 1 with I198T, E271K, M357K
heavy 2: B7 heavy 2 with E287K
light: B7 light
notes: as for B7
B13: H240-FA030/H240-FB001/L73-k0 (antibody, human IgG1, kappa)
heavy 1: B7 heavy 1 with I198T, E271K
heavy 2: B7 heavy 2 with E287K
light: B7 light
notes: as for B7

Each binder was assayed against T4, FcγRIIIa extracellular domain with C-terminal His tag (human, UniProt P08637 17-208) (assay: SPR (Biacore), antibody captured on antigen peptide chip, FcγR as analyte).
T4 construct: extracellular domain; also called FcgRIIIa; CD16A
Description: The expression vectors for the respective H chains were combined in a way that each of the alterations L234Y, G236W, S298A, S239D, A330L, and I332E is present in the same H chain as P329R or in the different H chain from P329R, and the expression vector GpL16-k0 for the L chain was combined with them. Antibodies of interest were expressed and prepared according to the method described in Reference Example 1. The prepared antibodies were used to assay the FcγRIIIa-binding activity. The result of assessment using P329R on the direction of FcγRIIIa recognition by L234Y, G236W, S298A, S239D, A330L, and I332E is summarized in Table 12.
Analysis of interaction between objective antibody and the FcγR was carried out using Biacore T100 (GE Healthcare). HBS-EP+ (GE Healthcare) was used as the running buffer, and the measurement temperature was set to 25° C. Chips produced by immobilizing the antigen peptide by the amine coupling method to a Series S Sencor Chip CM5 (GE Healthcare), or alternatively, chips produced by allowing preliminarily biotinylated antigen peptides to interact with and immobilize onto a Series S Sensor Chip SA (certified) (GE Healthcare) were used. Antibodies of interest were captured onto an antigen peptide-immobilized chip, and allowed to interact to each FcγR diluted with running buffer. To regenerate and repeatedly use the chip, the antibodies captured on the chip were washed off by reacting 10 mM glycine-HCl, pH 1.5.

T4 sequence (P08637 17-208): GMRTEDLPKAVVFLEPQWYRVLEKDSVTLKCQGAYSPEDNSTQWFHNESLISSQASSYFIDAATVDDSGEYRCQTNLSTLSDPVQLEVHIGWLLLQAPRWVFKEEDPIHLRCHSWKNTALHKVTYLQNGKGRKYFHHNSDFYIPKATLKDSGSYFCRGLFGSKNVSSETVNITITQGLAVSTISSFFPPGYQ

Binder	FcγRIIIa BINDING ACTIVITY (relative)
B1	60 relative, GpH7-A5/GpH7-B3/GpL16-k0 = 100
B2	56 relative, GpH7-A5/GpH7-B3/GpL16-k0 = 100
B3	3 relative, GpH7-A5/GpH7-B3/GpL16-k0 = 100
B4	84 relative, GpH7-A5/GpH7-B3/GpL16-k0 = 100
B5	32 relative, GpH7-A5/GpH7-B3/GpL16-k0 = 100
B6	35 relative, GpH7-A5/GpH7-B3/GpL16-k0 = 100

What follows are binders tested against T5, FcγRIIIa F type extracellular domain with C-terminal His tag (human, UniProt P08637 17-208) (assay: SPR (Biacore), antibody captured on chip, soluble FcgR as analyte; experiment 2).
T5 construct: extracellular domain; also called FcgRIIIa F; FcgRIIIaF; not shown: His tag at the C terminus
Experimental: (§1) Antibodies of interest were analyzed for the interaction to FcgR according to the method described in Reference Example 8.
(§2) Analysis of interaction between obj ective antibody and the FcγR was carried out using Biacore T100 (GE Healthcare), Biacore T200, Biacore A100, and Biacore 4000. HBS-EP+ (GE Healthcare) was used as the running buffer, and the measurement temperature was set to 25° C. Chips produced by immobilizing the antigen peptide by the amine coupling method to a Series S sensor Chip CM5 (GE Healthcare), chips produced by allowing preliminarily biotinylated antigen peptides to interact with and immobilize onto a Series S Sensor Chip SA (certified) (GE Healthcare), chips produced by immobilizing Protein L (ACTIGEN, BioVision) to Series S Sencor Chip CM5 (GE Healthcare), or chips produced by immobilizing Protein A/G (Thermo Scientific) to Series S Sencor Chip CM5 (GE Healthcare) were used. Antibodies of interest were captured onto these chips, and allowed to interact to each FcγR diluted with running buffer. To regenerate and repeatedly use the chip, the antibodies captured onto the chip were washed off by reacting 10 mM glycine-HCl, pH 1.5.

T5 sequence (P08637 17-208): as above

Binder	Kd [nM]
B7	3.7
B8	3.4
B9	4.4
B10	4.3
B11	6.3
B12	6.7
B13	6.4

Each binder was assayed against T6, FcγRIa extracellular domain with C-terminal His tag (human, UniProt P12314 16-292) in the same assay as above.
T6 construct: extracellular domain; also called FcgRI; FcgRIa; not shown: His tag at the C terminus
Experimental: as §1, §2

T6 sequence (P12314 16-292): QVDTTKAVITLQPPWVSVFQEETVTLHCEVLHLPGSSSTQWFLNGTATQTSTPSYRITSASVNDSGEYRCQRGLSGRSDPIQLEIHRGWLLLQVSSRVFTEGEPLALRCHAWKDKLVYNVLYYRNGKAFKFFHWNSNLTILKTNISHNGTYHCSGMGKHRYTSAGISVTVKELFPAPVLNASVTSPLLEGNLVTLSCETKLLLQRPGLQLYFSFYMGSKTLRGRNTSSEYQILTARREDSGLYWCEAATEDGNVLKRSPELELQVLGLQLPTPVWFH

Binder	Kd [nM]
B7	0.051
B8	0.12
B9	0.05
B10	0.051
B11	0.076
B12	1.8
B13	0.036

The binders below were run against T1, FcγRIIa R type extracellular domain … in the same assay as above.
Experimental: as §1, §2

Binder	Kd [nM]
B7	280
B8	310
B9	270
B10	270
B11	350
B12	370
B13	440

Each binder was assayed against T7, FcγRIIIa V type extracellular domain with C-terminal His tag (human, UniProt P08637 17-208) in the same assay as above.
T7 construct: extracellular domain; also called FcgRIIIa V; FcgRIIIaV; not shown: His tag at the C terminus
Experimental: as §1, §2

T7 sequence (P08637 17-208 F176V): as the sequence (P08637 17-208) above, with F160V counted along it

Binder	Kd [nM]
B7	0.78
B8	1
B9	1.1
B10	0.89
B11	1.5
B12	1.9
B13	1.7

The binders below were run against T2, FcγRIIa H type extracellular domain … in the same assay as above.
Experimental: as §1, §2

Binder	Kd [nM]
B7	70
B8	80
B9	74
B10	72
B11	110
B12	110
B13	120

The binders below were run against T3, FcγRIIb extracellular domain with … in the same assay as above.
Experimental: as §1, §2

Binder	Kd [nM]
B7	2200
B8	1600
B9	1700
B10	1400
B11	1700
B12	2000
B13	3300
